{"source": "paper PMC5922973", "about": "“Topoisomerase VI senses and exploits both DNA crossings and bends to facilitate strand passage” (eLife, 2018)", "binders": {"B1": {"name": "40 bp duplex (dsDNA)", "DNA 1": "CTATTGAAAAAGGAAGAGTATGAGTATTCAACATTTCCGC", "DNA 2": "GCGGAAATGTTGAATACTCATACTCTTCCTTTTTCAATAG"}, "B2": {"name": "70 bp duplex (dsDNA)", "DNA 1": "CCAAATGCTTCAATAATATTGAAAAAGGAAGAGTATGAGTATTCAACATTTCCGTGTCGCCCTTATTCCC", "DNA 2": "GGGAATAAGGGCGACACGGAAATGTTGAATACTCATACTCTTCCTTTTTCAATATTATTGAAGCATTTGG"}, "B3": {"name": "60 bp duplex (dsDNA)", "DNA 1": "CGCTTCAATAATATTGAAAAAGGAAGAGTATGAGTATTCAACATTTCCGTGTCGCCCTTC", "DNA 2": "GAAGGGCGACACGGAAATGTTGAATACTCATACTCTTCCTTTTTCAATATTATTGAAGCG"}, "B4": {"name": "20 bp duplex (dsDNA)", "DNA 1": "CGGAAGAGTATGAGTATTCG", "DNA 2": "CGAATACTCATACTCTTCCG"}, "B5": {"name": "30 bp duplex (dsDNA)", "DNA 1": "CAAAAAGGAAGAGTATGAGTATTCAACATC", "DNA 2": "GATGTTGAATACTCATACTCTTCCTTTTTG"}}, "note": "Changes are numbered by the printed parent chain."}
{"molecular_target": "T1, topo VI H2TH-EEE (Methanosarcina mazei, UniProt Q8PUB7;Q8PUB8 1-369;1-621, R263E;K268E;K308E)", "T1 sequence 1": "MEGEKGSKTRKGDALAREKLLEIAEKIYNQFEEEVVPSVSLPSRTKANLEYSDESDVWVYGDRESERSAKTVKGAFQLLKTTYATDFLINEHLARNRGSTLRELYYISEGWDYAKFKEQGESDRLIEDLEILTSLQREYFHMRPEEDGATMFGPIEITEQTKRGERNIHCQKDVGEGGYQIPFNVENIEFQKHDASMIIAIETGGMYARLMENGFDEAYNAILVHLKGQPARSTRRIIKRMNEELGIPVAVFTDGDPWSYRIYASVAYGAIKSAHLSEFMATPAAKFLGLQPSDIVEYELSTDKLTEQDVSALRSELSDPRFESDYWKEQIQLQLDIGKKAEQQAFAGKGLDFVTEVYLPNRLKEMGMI", "T1 sequence 2": "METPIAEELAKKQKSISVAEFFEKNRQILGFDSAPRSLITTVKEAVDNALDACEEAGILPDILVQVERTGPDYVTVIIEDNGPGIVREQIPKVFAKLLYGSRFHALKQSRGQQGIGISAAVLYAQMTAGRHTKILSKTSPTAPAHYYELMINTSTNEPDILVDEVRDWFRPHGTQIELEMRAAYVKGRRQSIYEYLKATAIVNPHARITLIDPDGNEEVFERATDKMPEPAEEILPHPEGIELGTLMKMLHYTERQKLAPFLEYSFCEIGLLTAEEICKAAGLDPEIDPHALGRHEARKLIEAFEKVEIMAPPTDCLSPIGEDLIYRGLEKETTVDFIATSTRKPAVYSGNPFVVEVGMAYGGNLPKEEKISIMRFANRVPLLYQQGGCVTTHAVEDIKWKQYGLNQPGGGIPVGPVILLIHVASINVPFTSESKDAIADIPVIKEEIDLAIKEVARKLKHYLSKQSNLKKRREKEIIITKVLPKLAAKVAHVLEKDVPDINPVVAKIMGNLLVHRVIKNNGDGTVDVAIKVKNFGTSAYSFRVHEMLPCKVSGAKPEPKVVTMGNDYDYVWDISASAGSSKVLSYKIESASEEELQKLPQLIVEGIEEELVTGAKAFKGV", "test": "fluorescence anisotropy; Hill h 1.6; FA: 20 nM probe, 50 mM K-glutamate, 20 mM HEPES-KOH pH 7.5, 10 mM MgCl2, 5% glycerol, 1 mM TCEP, 0.1 mg/mL BSA; incubated on ice, read at ambient temperature; competition with 100 nM enzyme", "conditions": "protein: recombinant; tags: N-terminal His6-TEV on Top6B, removed; chain copies: 2;2; label: 5'-FAM strand 1; blunt", "units": {"Kd": "nM"}}
{"binder": "B1", "Kd": "45 ± 2"}
{"molecular_target": "T2, topo VI KGRR-AAA (Methanosarcina mazei, UniProt Q8PUB7;Q8PUB8 1-369;1-621, K186A;R188A;R189A)", "T2 sequence 1": "T1 sequence 1", "T2 sequence 2": "T1 sequence 2 with K186A, R188A, R189A, E263R, E268K, E308K", "test": "fluorescence anisotropy; Fluorescence anisotropy, 20 nM FAM-labelled DNA, topo VI 0 and 3.9-4000 nM, no nucleotide; buffer, salt, pH and temperature not given in supplied text", "conditions": "protein: recombinant; tags: N-terminal His6-TEV on Top6B, removed; chain copies: 2;2; label: 5'-FAM strand 1; blunt", "units": {"Kd": "nM"}}
{"binder": "B1", "Kd": "67 ± 4"}
{"binder": "B2", "Kd": "124 ± 6"}
{"binder": "B3", "Kd": "99 ± 2"}
{"binder": "B4", "Kd": "338 ± 11"}
{"binder": "B5", "Kd": "65 ± 4"}
{"molecular_target": "T3, topo VI KGRR-EEE (Methanosarcina mazei, UniProt Q8PUB7;Q8PUB8 1-369;1-621, K186E;R188E;R189E)", "T3 sequence 1": "T1 sequence 1", "T3 sequence 2": "T1 sequence 2 with K186E, R188E, R189E, E263R, E268K, E308K", "test": "fluorescence anisotropy; Fluorescence anisotropy, 20 nM FAM-labelled DNA, topo VI 0 and 3.9-4000 nM, no nucleotide; buffer, salt, pH and temperature not given in supplied text", "conditions": "protein: recombinant; tags: N-terminal His6-TEV on Top6B, removed; chain copies: 2;2; label: 5'-FAM strand 1; blunt", "units": {"Kd": "nM"}}
{"binder": "B1", "Kd": "75 ± 4"}
{"binder": "B2", "Kd": "193 ± 4"}
{"binder": "B3", "Kd": "119 ± 3"}
{"binder": "B4", "Kd": "338 ± 15"}
{"binder": "B5", "Kd": "82 ± 7"}
{"molecular_target": "T1, topo VI H2TH-EEE", "test": "fluorescence anisotropy; Hill h 1.3; FA: 20 nM probe, 50 mM K-glutamate, 20 mM HEPES-KOH pH 7.5, 10 mM MgCl2, 5% glycerol, 1 mM TCEP, 0.1 mg/mL BSA; incubated on ice, read at ambient temperature; competition with 100 nM enzyme", "conditions": "protein: recombinant; tags: N-terminal His6-TEV on Top6B, removed; chain copies: 2;2; label: 5'-FAM strand 1; blunt", "units": {"Kd": "nM"}}
{"binder": "B5", "Kd": "94 ± 5"}
